These results are taken from PMC4512291 (Angewandte Chemie (International Ed. in English), 2015).

The assay deals with HPV16 E6 (GPCA fusion) (HPV16, UniProt P03126 1-158). As to the kind of experiment: split reporter.

B1: PDZ-LxxLL chimera fused to a Gaussia princeps luciferase fragment (GPCA) (designed binder)
chain: GKPFFTRNPSELKGKFIHTKLRKSSRGFGFTVVGGDEPDEFLQIKSLVLDGPAALDGKMETGDVIVSVNDTCVLGHTHAQVVKIFQSIPIGASVDLELCRGYPLPFDPDDPNTSLVTSVAILDKEPAAAELTLQELLGEER
On to B1, for which the “fold increase of the GPCA binding signal over that with LxxLL” value came to 75 fold and the “fold increase of the GPCA binding signal over that with PDZ” value stood at 25 fold.
